The values below come from EP4786494A1 (Nanjing Leads Biolabs Co., Ltd., dated 2026).

To fix the notation:
T1: human FGFR2-his protein (huFGFR2-his) (human)
T1 construct: Extracellular region of human FGFR2 (NP_001138385.1) with a 6xHis tag; also called human FGFR2 extracellular protein
T1 chain: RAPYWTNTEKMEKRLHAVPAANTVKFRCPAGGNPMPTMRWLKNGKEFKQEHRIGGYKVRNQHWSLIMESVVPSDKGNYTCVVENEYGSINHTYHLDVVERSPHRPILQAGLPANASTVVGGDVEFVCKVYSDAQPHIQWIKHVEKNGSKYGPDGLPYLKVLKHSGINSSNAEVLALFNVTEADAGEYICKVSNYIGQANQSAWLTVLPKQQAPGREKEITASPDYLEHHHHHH

T2: human FGFR1 protein (ACRO Biosystems, Cat. No. FG1-H5223) (human, UniProt P11362-14 22-285)
T2 construct: Bought recombinant protein; construct not described
T2 sequence (looked up): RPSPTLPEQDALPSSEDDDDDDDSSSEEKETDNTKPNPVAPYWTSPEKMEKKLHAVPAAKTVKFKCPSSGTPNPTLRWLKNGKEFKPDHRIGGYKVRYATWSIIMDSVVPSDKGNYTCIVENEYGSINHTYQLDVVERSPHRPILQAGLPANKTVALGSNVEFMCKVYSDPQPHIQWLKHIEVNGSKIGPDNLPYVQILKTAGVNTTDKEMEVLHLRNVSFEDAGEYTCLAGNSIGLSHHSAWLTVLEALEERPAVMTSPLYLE

T3: human FGFR3 protein (Sino Biological, Cat. No. 16486-H08H) (human, UniProt P22607-2 23-377)
T3 construct: Bought recombinant protein; construct not described
T3 sequence (looked up): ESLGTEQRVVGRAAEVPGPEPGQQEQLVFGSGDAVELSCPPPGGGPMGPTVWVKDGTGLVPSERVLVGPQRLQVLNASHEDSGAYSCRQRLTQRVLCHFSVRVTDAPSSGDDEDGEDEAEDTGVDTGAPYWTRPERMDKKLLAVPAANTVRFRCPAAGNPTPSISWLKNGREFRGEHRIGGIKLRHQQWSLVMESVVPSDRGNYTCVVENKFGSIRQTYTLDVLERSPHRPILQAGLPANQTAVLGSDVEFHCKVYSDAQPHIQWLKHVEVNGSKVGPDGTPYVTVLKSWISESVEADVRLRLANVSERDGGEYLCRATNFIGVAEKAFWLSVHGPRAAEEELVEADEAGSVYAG

B1: mouse antibody A1B2 (antibody, V domains shown)
VH: EVQLQQSGAELVRPGASVKLSCTASGFNIKDYYMHWVKQRPEQGLEWIGRIDPEDGDTEYAPKFQGKATMTADTSSNTAYLQLSSLTSEDTAVYYCTTYYYVSTYEDYWGQGTTLTVSS
VL: QIVLTQSPAIMSASLGEEITLTCSASSSVSHMHWYQQKSGTSPKLLIYSTSNLASGVPSRFSGSGSGTFYSLTISSVEAEDAADYYCHHWSSWTFGGGTKLEIK
notes: Antibody as produced by the hybridoma
B2: mouse antibody F6B6 (antibody, V domains shown)
VH: QVQLKQSGPGLVQPSQSLSITCTVSGFSLTNYGVHWVRQSPGKGLEWLGVIWSDGSTDYDAAFISRLSISTDNSKSQVFFKMNSLQAADTAIYYCARKGDYDYDNYAMDYWGQGTSVTVSS
VL: DVVITQSPATLSVTPGDSVSLSCRASQSISNNLHWYQQKSHESPRLLIKYASQSISGIPSRFSGSGSGTDFTLSINSVETEDFGMYFCQQSNSWPLTFGAGTKLELK
notes: as for B1
B3: mouse antibody G11B8 (antibody, V domains shown)
VH: EVQLQQSGPELVKPGASVKIPCKASGYTFTDYNMDWVKQSHGKSLEWIGDINPKNGETFYNQKFKGKATLTVDRSSNTAYMELRSLTSEDTAVYFCAKRDLNWYFDYWGQGTTLTVSS
VL: DIQMTQSSSYLSVSLGGRVTITCKASDHINNWLAWYQQKPGNAPRLLISGATSLETGVPSRFSGSGSGKDYTLSITSLQTEDVATYYCQQYWSTPWTFGGGTKLEIK
notes: as for B1
B4: mouse antibody H3F7-a (antibody, V domains shown)
VH: B3 VH with N77S
VL: B3 VL
notes: as for B1
B5: mouse antibody F3F8 (antibody, V domains shown)
VH: QVTLKESGPGILQSSQTLSLTCSFSGFSLSTSGMGVSWIRQPSGKGLEWLAHIYWDNDKRYNPSLKSRLTISKDTSRNQVFLKITSVDTADTATYYCTRSDSSGSFDYWGQGTTLTVSS
VL: DIQMTQTTSSLSASLGDRVTISCRASQDISNYLNWYQQKPDGTVKFLIYYTSTLHSGVPSRFSGSGSGTDYSLTISNLEQEDIATYFCQQGNTLPWTFGGGTKLEIK
notes: as for B1
B6: mouse antibody D12D8 (antibody, V domains shown)
VH: QVQLQQSGAELARPGASVKLSCKASGYTFTNYGISWVKQRTGQGLEWIGEIYPRSGNTYYNEKFKGKATLTADKSSSTAYMELRSLTSEDSAVYFCARGDYSNSDYWGQGTTLTVSS
VL: B5 VL with S30T, N31D, Y32H, F46L, T53R, W96R
notes: as for B1
B7: mouse antibody E3A1 (antibody, V domains shown)
VH: B5 VH with S30T, N57D, T98A, R99G, S100C
VL: B5 VL with S22T, F46L, T51R, T53R, T69P, D70E
notes: as for B1
B8: mouse antibody A5H12 (antibody, V domains shown)
VH: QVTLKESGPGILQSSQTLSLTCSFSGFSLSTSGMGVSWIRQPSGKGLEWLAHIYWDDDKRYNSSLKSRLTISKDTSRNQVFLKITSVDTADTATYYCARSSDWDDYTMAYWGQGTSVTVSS
VL: DIVLTQSPASLAVSLGQRATISCRASESIDDFGISFMHWYQQKPGQPPKLLIYRASNLESGIPARFSGSGSRADFTLTINPVETDDVATYYCQQSNKDPPTFGAGTNLELK
notes: as for B1
B9: antibody A1B2 (murine chimeric anti-FGFR2 antibody) (antibody, human IgG1, kappa, V domains shown)
VH: B1 VH
VL: QIVLTQSPAIMSASLGEEITLTCSASSSVSHMHWYQQKSGTSPKLLIYSTSNLASGVPSRFSGSGSGTFYSLTISSVEAEDAADYYCHHWSSWTFGGGTKLEIKR
B10: antibody F6B6 (murine chimeric anti-FGFR2 antibody) (antibody, human IgG1, kappa, V domains shown)
VH: B2 VH
VL: DVVITQSPATLSVTPGDSVSLSCRASQSISNNLHWYQQKSHESPRLLIKYASQSISGIPSRFSGSGSGTDFTLSINSVETEDFGMYFCQQSNSWPLTFGAGTKLELKR
B11: antibody G11B8 (murine chimeric anti-FGFR2 antibody) (antibody, human IgG1, kappa, V domains shown)
VH: B3 VH
VL: DIQMTQSSSYLSVSLGGRVTITCKASDHINNWLAWYQQKPGNAPRLLISGATSLETGVPSRFSGSGSGKDYTLSITSLQTEDVATYYCQQYWSTPWTFGGGTKLEIKR
B12: antibody H3F7-a (murine chimeric anti-FGFR2 antibody) (antibody, human IgG1, kappa, V domains shown)
VH: B3 VH with N77S
VL: B11 VL
B13: antibody D12D8 (murine chimeric anti-FGFR2 antibody) (antibody, human IgG1, kappa, V domains shown)
VH: B6 VH
VL: DIQMTQTTSSLSASLGDRVTISCRASQDITDHLNWYQQKPDGTVKLLIYYTSRLHSGVPSRFSGSGSGTDYSLTISNLEQEDIATYFCQQGNTLPRTFGGGTKLEIKR
B14: antibody A5H12 (murine chimeric anti-FGFR2 antibody) (antibody, human IgG1, kappa, V domains shown)
VH: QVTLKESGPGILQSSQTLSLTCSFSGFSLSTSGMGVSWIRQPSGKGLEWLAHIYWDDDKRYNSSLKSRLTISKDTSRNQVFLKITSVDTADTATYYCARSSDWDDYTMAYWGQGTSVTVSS
VL: DIVLTQSPASLAVSLGQRATISCRASESIDDFGISFMHWYQQKPGQPPKLLIYRASNLESGIPARFSGSGSRADFTLTINPVETDDVATYYCQQSNKDPPTFGAGTNLELKR
B15: antibody F3F8 (murine chimeric anti-FGFR2 antibody) (antibody, human IgG1, kappa, V domains shown)
VH: B5 VH
VL: B13 VL with T30S, D31N, H32Y, L46F, R53T, R96W
B16: antibody E3A1 (murine chimeric anti-FGFR2 antibody) (antibody, human IgG1, kappa, V domains shown)
VH: B5 VH with S30T, N57D, T98A, R99G, S100C
VL: B13 VL with S22T, T30S, D31N, H32Y, T51R, T69P, D70E, R96W
B17: bemarituzumab (antibody, human IgG1, kappa, V domains shown)
VH: QVQLVQSGAEVKKPGSSVKVSCKASGYIFTTYNVHWVRQAPGQGLEWIGSIYPDNGDTSYNQNFKGRATITADKSTSTAYMELSSLRSEDTAVYYCARGDFAYWGQGTLVTVSS
VL: DIQMTQSPSSLSASVGDRVTITCKASQGVSNDVAWYQQKPGKAPKLLIYSASYRYTGVPSRFSGSGSGTDFTFTISSLQPEDIATYYCQQHSTTPYTFGQGTKLEIKR

Residue numbers refer to the chain shown, from its start.

The first experiment addresses T1, human FGFR2-his protein (huFGFR2-his). Kind of experiment: ELISA screen of hybridoma subclones on human FGFR2-his. A general note: An ELISA detects its analyte on a solid surface through an enzyme-linked reagent.
In the case of B1, the binding result was “binds”.
With B2, the binding result is given as “binds”.
Same read-out and setting: with B3 the entry was “binds”.
Take B4: the binding result was “binds”.
With B5, the binding result was “binds”.
Regarding B6, the binding result is reported as “binds”.
The same measure, in the same setting: with B7 the entry was “binds”; with B8, “binds”.

A further experiment concerns the target T4, human FGFR4 protein (Sino Biological, Cat. No. 10538-H08H) (human, UniProt P22455 22-369).
T4 construct: Bought recombinant protein; construct not described
The experiment can be described thus: ELISA, FGFR4 coated.
Take B9: the binding result was “no binding”.
For the molecule B10, the binding result is reported as “no binding”.
Same read-out and setting: with B11 the entry was “no binding”; with B12, “no binding”; with B13, “no binding”.
As for B14, the binding result was “no binding”.
Regarding B15, the binding result is “no binding”.
Regarding B16, the binding result is “no binding”.
Turning to B17, the binding result is recorded as “no binding”.

Another experiment has as its target T2, human FGFR1 protein (ACRO Biosystems, …). Kind of experiment: ELISA, FGFR1 coated.
Regarding B9, the binding result was “no binding”.
As for B10, the binding result was “no binding”.
As for B11, the binding result was “no binding”.
Same read-out and setting: the value for B12 was “no binding”.
Turning to B13, the binding result is “no binding”.
For the molecule B14, the binding result is “no binding”.
On the same count and under the same terms, with B15 the entry was “no binding”.
With B16, the binding result was “no binding”.
With B17, the binding result is recorded as “no binding”.

In another experiment the target is T3, human FGFR3 protein (Sino Biological, …). The experiment can be described thus: ELISA, FGFR3 coated.
Regarding B9, the binding result is “no binding”.
Consider B10, for which the binding result is listed as “no binding”.
Same read-out and setting: the value for B11 was “no binding”; that for B12 was “no binding”.
Still for that read-out and setting: the value for B13 was “no binding”; that for B15 was “no binding”.
Still for that read-out and setting: with B17 the entry was “no binding”.
